Test results reported in patent US20250127885A1.

Columns and labels:
[1] = target: HCMV viral Fcγ receptors (vFcγRs) on AD169-infected cells; test: cell-based or functional assay
[2] = target: HCMV viral Fcγ receptors (vFcγRs) on AD169-infected cells; test: flow cytometry on AD169-infected fibroblasts, 67 nM antibody
[3] = target: HCMV glycoprotein B (gB) on HCMV-infected MRC5 fibroblasts (human cytomegalovirus (HCMV), strain AD169) (UniProt P06473); test: as above
[4] = target: human CD16A ectodomain fused to mouse CD3 zeta, on BW5147 reporter cells (human; mouse) (UniProt P08637); test: cell-based or functional assay
Chain of human CD16A ectodomain fused to mouse CD3 zeta, on BW5147 reporter cells (human; mouse) (P08637 other isoform, or with tags, fused parts or gaps limits assumed): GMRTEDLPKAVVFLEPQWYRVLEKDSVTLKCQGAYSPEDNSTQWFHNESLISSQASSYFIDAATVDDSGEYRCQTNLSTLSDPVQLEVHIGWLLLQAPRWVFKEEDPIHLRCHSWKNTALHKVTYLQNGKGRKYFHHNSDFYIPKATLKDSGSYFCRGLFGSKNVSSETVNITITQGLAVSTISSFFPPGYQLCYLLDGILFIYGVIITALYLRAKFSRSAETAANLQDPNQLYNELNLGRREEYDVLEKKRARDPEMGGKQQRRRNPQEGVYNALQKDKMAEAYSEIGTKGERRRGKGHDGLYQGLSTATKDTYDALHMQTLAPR

[5] = target: HCMV glycoprotein B (gB) on HCMV-infected MRC5 fibroblasts (human cytomegalovirus (HCMV), strain AD169) (UniProt P06473); test: flow cytometry on AD169-infected MRC5 cells, anti-human Fcγ-AF647
[6] = target: HCMV glycoprotein B (gB) on HCMV-infected MRC5 fibroblasts (human cytomegalovirus (HCMV), strain AD169) (UniProt P06473); test: flow cytometry on AD169-infected fibroblasts, 67 nM antibody; gB and vFcγRs both capture
[7] = target: HCMV glycoprotein B (gB) on HCMV-infected MRC5 fibroblasts (human cytomegalovirus (HCMV), strain AD169) (UniProt P06473); test: flow cytometry, 67 nM antibody on ΔΔΔ-infected fibroblasts (vFcγRs deleted), anti-huFc detection
[8] = target: HCMV glycoprotein B (gB) on HCMV-infected MRC5 fibroblasts (human cytomegalovirus (HCMV), strain AD169) (UniProt P06473); test: flow cytometry, 67 nM antibody on AD169-infected fibroblasts, anti-huFc detection (vFcγRs also present)
[9] = target: HCMV glycoprotein B (gB) on HCMV-infected MRC5 fibroblasts (human cytomegalovirus (HCMV), strain AD169) (UniProt P06473); test: flow cytometry on AD169-infected fibroblasts, 67 nM antibody with soluble gp34-M (100 nM) and/or t-gp68 (2000 nM)
[10] = target: soluble HCMV gp34 ectodomain with C150S (gp34-M) (human cytomegalovirus (HCMV), strain AD169) (UniProt P16809); test: ELISA, gB coated at 2 ug/mL, antibody 100 ug/mL, Gp34 diluted from 50 ug/mL, anti-flag-M2-HRP 1/1000 (table on the sheet)
[11] = target: soluble truncated HCMV gp68 ectodomain (t-gp68) (human cytomegalovirus (HCMV)) (UniProt F5HC14); test: ELISA, gB coated at 2 ug/mL, antibody 100 ug/mL, Gp68 diluted from 50 ug/mL, anti-flag-M2-HRP 1/1000 (table on the sheet)
[12] = target: human CD16A F158 allotype (human) (UniProt P08637); test: BLI (Octet RED96e), steady state; hu4D5 variant on FAB2G tips, CD16A F158 5000-156.25 nM, pH 7.4
Chain of human CD16A F158 allotype (human) (P08637 17-208 limits assumed): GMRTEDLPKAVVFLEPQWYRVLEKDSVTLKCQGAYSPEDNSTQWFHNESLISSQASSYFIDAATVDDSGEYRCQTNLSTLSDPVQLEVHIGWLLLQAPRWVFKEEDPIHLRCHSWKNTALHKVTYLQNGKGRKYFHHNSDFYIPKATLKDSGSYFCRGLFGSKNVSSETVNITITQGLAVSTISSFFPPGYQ

[13] = target: biotinylated FcRn (Acro Biosystems) (UniProt P55899); test: BLI (Octet RED96e), steady state; biotinylated FcRn on SA tips, hu4D5 Fc variant 1000-31.25 nM, pH 6.0
Chain of biotinylated FcRn (Acro Biosystems) (P55899 24-297 limits assumed, chain 1 of 2): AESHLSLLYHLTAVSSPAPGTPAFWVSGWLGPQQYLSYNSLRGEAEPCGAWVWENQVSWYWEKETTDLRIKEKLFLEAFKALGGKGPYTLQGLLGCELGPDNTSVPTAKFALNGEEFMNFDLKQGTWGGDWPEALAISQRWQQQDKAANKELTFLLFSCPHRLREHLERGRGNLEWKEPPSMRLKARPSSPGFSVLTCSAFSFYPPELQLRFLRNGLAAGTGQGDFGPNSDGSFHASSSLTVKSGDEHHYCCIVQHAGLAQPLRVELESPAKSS
Chain of biotinylated FcRn (Acro Biosystems) (chain, as listed by the source limits assumed, chain 2 of 2): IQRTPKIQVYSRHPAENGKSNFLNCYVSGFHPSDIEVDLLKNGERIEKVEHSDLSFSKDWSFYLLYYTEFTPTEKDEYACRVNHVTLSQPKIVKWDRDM

[14] = target: soluble HCMV gp34 ectodomain with C150S (gp34-M) (human cytomegalovirus (HCMV), strain AD169) (UniProt P16809); test: SPR (Biacore X100), kinetic KD; gp34-M captured by anti-strep Fab on CM5, hu4D5 Fc variant injected; 1:1 fit
[15] = target: soluble truncated HCMV gp68 ectodomain (t-gp68) (human cytomegalovirus (HCMV)) (UniProt F5HC14); test: SPR (Biacore X100), equilibrium (steady state) KD; t-gp68 captured by anti-strep Fab, hu4D5 Fc variant injected
[16] = target: HCMV Merlin gpRL13 ectodomain displayed on ExpiCHO cells (human cytomegalovirus (HCMV), strain Merlin) (UniProt Q6SWC9); test: flow cytometry, ExpiCHO cells displaying the ectodomain, hu4D5 Fc variant titrated, goat anti-Fc gamma-AF647
[17] = target: soluble truncated HCMV gp68 ectodomain (t-gp68) (human cytomegalovirus (HCMV)) (UniProt F5HC14); test: SPR (Biacore X100), kinetic KD; t-gp68 captured by anti-strep Fab on CM5, hu4D5 Fc variant injected; 2:1 fit, first kinetic constants
[18] = target: HCMV AD169 gpRL12 ectodomain displayed on ExpiCHO cells (human cytomegalovirus (HCMV), strain AD169) (UniProt P16810); test: flow cytometry, ExpiCHO cells displaying the ectodomain, goat anti-Fc gamma-AF647, 4PL fit; EC50 unit inferred, x axis IgG (nM)
[19] = target: HCMV gp34 ectodomain displayed on ExpiCHO cells (human cytomegalovirus (HCMV)) (UniProt P16809); test: as above
[20] = target: HCMV Merlin gpRL12 ectodomain displayed on ExpiCHO cells (human cytomegalovirus (HCMV), strain Merlin) (UniProt Q6SWD0); test: as above
[21] = target: HCMV Merlin gpRL13 ectodomain displayed on ExpiCHO cells (human cytomegalovirus (HCMV), strain Merlin) (UniProt Q6SWC9); test: as above
[22] = target: HCMV gp68 ectodomain displayed on ExpiCHO cells (human cytomegalovirus (HCMV)) (UniProt P16739); test: as above
[23] = target: HCMV viral Fcγ receptors (vFcγRs) on AD169-infected cells; test: flow cytometry, 67 nM antibody on AD169-infected fibroblasts, anti-huFc detection

## 2B1 control antibody with human IgG1 Fc and an irrelevant Fab
[1]
  internalization by AD169-infected MRC5 (pHrodo, %): 20%
  internalization in the presence of soluble gp34-M, t-gp68, or both (%): 0 to 5%
[2]
  percent of cells bound: 40%

## 2B1 control antibody with mouse IgG2a Fc and an irrelevant Fab
[2]
  percent of cells bound: 5%

## SM5-1 (anti-gB) with mouse IgG2a Fc (antibody)
[3]
  percent of cells bound: 60%

## SM5-1 (anti-gB) with wild-type human IgG1 Fc (antibody)
[1]
  NK-92 V158 degranulation (CD107a, % cells), AD169/GFP-infected MRC5, 20 µg/ml: 5%
  internalization by AD169-infected MRC5 (pHrodo, %): 37%
  internalization by AD169-infected MRC5 cells (%): 35%
  internalization by AD169-infected cells (pHrodo, %): 50%
  internalization by ΔΔΔ-infected cells (vFcγRs deleted; pHrodo, %): 7%
  internalization in the presence of soluble gp34-M, t-gp68, or both (%): 0 to 5%
[4]
  CD16A activation, EC50 (mIL-2 of BW-CD16A-ζ reporter cells), AD169-infected MRC5: 0.0128 ng/mL
  CD16A activation, EC50 (mIL-2 of BW-CD16A-ζ reporter cells), ΔΔΔ-infected MRC5: 0.00063 ng/mL
[5]
  percent of cells stained: 70%
[6]
  percent of cells bound: 75%
[7]
  percent of cells stained: 80%
[8]
  percent of cells stained: 80%
[9]
  percent of cells bound: 60%
[10]
  EC50 (read off the curve): 200 ng/mL
[11]
  EC50 (read off the curve): 400 ng/mL

## hu4D5 antibody with G2 Fc (R255Q, H268L, E294K, Q311L, K334E)
[12]
  Kd: 1000 nM
[13]
  Kd: 50 nM
[14]
  Kd: 320 nM
[15]
  Kd: 1800 nM
[16]
  EC50 (read off the curve): 30 nM
[17]
  Kd: 4800 nM
[18]
  EC50: 81 nM
[19]
  EC50: 410 nM

## hu4D5 antibody with G5 Fc (R255Q, S337F)
[12]
  Kd: 1000 nM
[13]
  Kd: 90 nM
[14]
  Kd: 33 nM
[15]
  Kd: 850 nM
[17]
  Kd: 2100 nM
[18]
  EC50: 40 nM
[20]
  EC50: 15 nM
[21]
  EC50: 230 nM
[19]
  EC50: 410 nM

## hu4D5 antibody with wild-type human IgG1 Fc
[12]
  Kd: 1000 nM
[13]
  Kd: 60 nM
[14]
  Kd: 7.3 nM
[15]
  Kd: 80 nM
[17]
  Kd: 69 nM
[18]
  EC50: 74 nM
[20]
  EC50: 20 nM
[21]
  EC50: 55 nM
[19]
  EC50: 40 nM
[22]
  EC50: 12 nM

## human IgG1 isotype control antibody
[1]
  internalization by AD169-infected cells (pHrodo, %): 10%
[23]
  percent of cells stained: 35%
